From US20250084142A1 (INTARCIA THERAPEUTICS, published 2025) come the findings set out here.

The labels stand for the following.
T1: NPY5R
T1 sequence (Q15761 1-445, species assumed, looked up): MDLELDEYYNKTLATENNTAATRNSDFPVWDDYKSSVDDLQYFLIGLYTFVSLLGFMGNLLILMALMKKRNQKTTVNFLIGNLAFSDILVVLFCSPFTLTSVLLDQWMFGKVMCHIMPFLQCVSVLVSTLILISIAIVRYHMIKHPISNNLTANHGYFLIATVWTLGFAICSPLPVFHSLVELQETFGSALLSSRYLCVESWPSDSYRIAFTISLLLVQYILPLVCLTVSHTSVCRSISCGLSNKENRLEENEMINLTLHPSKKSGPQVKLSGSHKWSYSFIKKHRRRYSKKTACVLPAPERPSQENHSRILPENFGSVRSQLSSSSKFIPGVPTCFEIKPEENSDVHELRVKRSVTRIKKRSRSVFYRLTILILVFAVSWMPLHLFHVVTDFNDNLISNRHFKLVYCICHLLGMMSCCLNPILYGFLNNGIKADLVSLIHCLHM

T2: NPY2R
T2 sequence (P49146 1-381, species assumed, looked up): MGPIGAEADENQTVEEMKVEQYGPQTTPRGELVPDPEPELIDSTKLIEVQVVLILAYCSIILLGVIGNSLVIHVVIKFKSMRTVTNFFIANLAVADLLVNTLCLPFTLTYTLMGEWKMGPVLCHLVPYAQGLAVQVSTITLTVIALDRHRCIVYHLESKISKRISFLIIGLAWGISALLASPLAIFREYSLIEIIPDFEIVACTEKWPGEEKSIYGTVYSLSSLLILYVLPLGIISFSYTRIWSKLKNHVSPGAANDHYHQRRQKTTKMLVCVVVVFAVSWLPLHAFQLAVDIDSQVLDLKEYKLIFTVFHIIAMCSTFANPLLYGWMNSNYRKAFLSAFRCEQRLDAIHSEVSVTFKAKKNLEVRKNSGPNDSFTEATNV

B1: Compound A4 (peptide)
peptide: K([γGlu-γGlu-C20 diacid])PKPEAPGKDASPEEWNRYYADARHYLNWLTRQR[NMeY]-NH2
modifications: N-terminus assumed
SMILES: CC(C)C[C@H](NC(=O)[C@H](Cc1ccc(O)cc1)NC(=O)[C@H](Cc1c[nH]cn1)NC(=O)[C@H](CCCNC(=N)N)NC(=O)[C@H](C)NC(=O)[C@H](CC(=O)O)NC(=O)[C@H](C)NC(=O)[C@H](Cc1ccc(O)cc1)NC(=O)[C@H](Cc1ccc(O)cc1)NC(=O)[C@H](CCCNC(=N)N)NC(=O)[C@H](CC(N)=O)NC(=O)[C@H](Cc1c[nH]c2ccccc12)NC(=O)[C@H](CCC(=O)O)NC(=O)[C@H](CCC(=O)O)NC(=O)[C@@H]1CCCN1C(=O)[C@H](CO)NC(=O)[C@H](C)NC(=O)[C@H](CC(=O)O)NC(=O)[C@H](CCCCN)NC(=O)CNC(=O)[C@@H]1CCCN1C(=O)[C@H](C)NC(=O)[C@H](CCC(=O)O)NC(=O)[C@@H]1CCCN1C(=O)[C@H](CCCCN)NC(=O)[C@@H]1CCCN1C(=O)[C@@H](N)CCCCNC(=O)CC[C@H](NC(=O)CC[C@H](NC(=O)CCCCCCCCCCCCCCCCCCC(=O)O)C(=O)O)C(=O)O)C(=O)N[C@@H](CC(N)=O)C(=O)N[C@@H](Cc1c[nH]c2ccccc12)C(=O)N[C@@H](CC(C)C)C(=O)N[C@H](C(=O)N[C@@H](CCCNC(=N)N)C(=O)N[C@@H](CCC(N)=O)C(=O)N[C@@H](CCCNC(=N)N)C(=O)N(C)[C@@H](Cc1ccc(O)cc1)C(N)=O)[C@@H](C)O
B2: Compound A67 (peptide)
peptide: PKPEAPGK([γGlu-γGlu-C20 diacid])DASPEKWNRYYKDLRHYLNWLTRQRF-NH2
B3: Compound A63 (peptide)
peptide: PKPEAPK([γGlu-γGlu-C20 diacid])KDASPEELNRYYADARHYLNWLTRQR[NMeY]-NH2
modifications: N-terminus assumed
SMILES: CC(C)C[C@H](NC(=O)[C@H](Cc1ccc(O)cc1)NC(=O)[C@H](Cc1c[nH]cn1)NC(=O)[C@H](CCCNC(=N)N)NC(=O)[C@H](C)NC(=O)[C@H](CC(=O)O)NC(=O)[C@H](C)NC(=O)[C@H](Cc1ccc(O)cc1)NC(=O)[C@H](Cc1ccc(O)cc1)NC(=O)[C@H](CCCNC(=N)N)NC(=O)[C@H](CC(N)=O)NC(=O)[C@H](CC(C)C)NC(=O)[C@H](CCC(=O)O)NC(=O)[C@H](CCC(=O)O)NC(=O)[C@@H]1CCCN1C(=O)[C@H](CO)NC(=O)[C@H](C)NC(=O)[C@H](CC(=O)O)NC(=O)[C@H](CCCCN)NC(=O)[C@H](CCCCNC(=O)CC[C@H](NC(=O)CC[C@H](NC(=O)CCCCCCCCCCCCCCCCCCC(=O)O)C(=O)O)C(=O)O)NC(=O)[C@@H]1CCCN1C(=O)[C@H](C)NC(=O)[C@H](CCC(=O)O)NC(=O)[C@@H]1CCCN1C(=O)[C@H](CCCCN)NC(=O)[C@@H]1CCCN1)C(=O)N[C@@H](CC(N)=O)C(=O)N[C@@H](Cc1c[nH]c2ccccc12)C(=O)N[C@@H](CC(C)C)C(=O)N[C@H](C(=O)N[C@@H](CCCNC(=N)N)C(=O)N[C@@H](CCC(N)=O)C(=O)N[C@@H](CCCNC(=N)N)C(=O)N(C)[C@@H](Cc1ccc(O)cc1)C(N)=O)[C@@H](C)O
B4: Compound A64 (peptide)
peptide: PKPEAPK([γGlu-γGlu-C20 diacid])KDASPEELNRYYADARHYLNWLTRQRF-NH2
modifications: N-terminus assumed
SMILES: CC(C)C[C@H](NC(=O)[C@H](Cc1ccc(O)cc1)NC(=O)[C@H](Cc1c[nH]cn1)NC(=O)[C@H](CCCNC(=N)N)NC(=O)[C@H](C)NC(=O)[C@H](CC(=O)O)NC(=O)[C@H](C)NC(=O)[C@H](Cc1ccc(O)cc1)NC(=O)[C@H](Cc1ccc(O)cc1)NC(=O)[C@H](CCCNC(=N)N)NC(=O)[C@H](CC(N)=O)NC(=O)[C@H](CC(C)C)NC(=O)[C@H](CCC(=O)O)NC(=O)[C@H](CCC(=O)O)NC(=O)[C@@H]1CCCN1C(=O)[C@H](CO)NC(=O)[C@H](C)NC(=O)[C@H](CC(=O)O)NC(=O)[C@H](CCCCN)NC(=O)[C@H](CCCCNC(=O)CC[C@H](NC(=O)CC[C@H](NC(=O)CCCCCCCCCCCCCCCCCCC(=O)O)C(=O)O)C(=O)O)NC(=O)[C@@H]1CCCN1C(=O)[C@H](C)NC(=O)[C@H](CCC(=O)O)NC(=O)[C@@H]1CCCN1C(=O)[C@H](CCCCN)NC(=O)[C@@H]1CCCN1)C(=O)N[C@@H](CC(N)=O)C(=O)N[C@@H](Cc1c[nH]c2ccccc12)C(=O)N[C@@H](CC(C)C)C(=O)N[C@H](C(=O)N[C@@H](CCCNC(=N)N)C(=O)N[C@@H](CCC(N)=O)C(=O)N[C@@H](CCCNC(=N)N)C(=O)N[C@@H](Cc1ccccc1)C(N)=O)[C@@H](C)O
B5: Compound A69 (peptide)
peptide: PKPEAPGK([γGlu-γGlu-C20 diacid])DASPEEWNRYKKDLRHYLNWLTRQRF-NH2
B6: Compound A66 (peptide)
peptide: PKPEAPGK([γGlu-γGlu-C20 diacid])DKSPEEWNRYYKDLRHYLNWLTRQRF-NH2
B7: Compound A70 (peptide)
peptide: PKPEKPGKDASPK([γGlu-γGlu-C20 diacid])EWNRYYKDLRHYLNWLTRQRF-NH2
modifications: N-terminus assumed
SMILES: CC(C)C[C@H](NC(=O)[C@H](CC(=O)O)NC(=O)[C@H](CCCCN)NC(=O)[C@H](Cc1ccc(O)cc1)NC(=O)[C@H](Cc1ccc(O)cc1)NC(=O)[C@H](CCCNC(=N)N)NC(=O)[C@H](CC(N)=O)NC(=O)[C@H](Cc1c[nH]c2ccccc12)NC(=O)[C@H](CCC(=O)O)NC(=O)[C@H](CCCCNC(=O)CC[C@H](NC(=O)CC[C@H](NC(=O)CCCCCCCCCCCCCCCCCCC(=O)O)C(=O)O)C(=O)O)NC(=O)[C@@H]1CCCN1C(=O)[C@H](CO)NC(=O)[C@H](C)NC(=O)[C@H](CC(=O)O)NC(=O)[C@H](CCCCN)NC(=O)CNC(=O)[C@@H]1CCCN1C(=O)[C@H](CCCCN)NC(=O)[C@H](CCC(=O)O)NC(=O)[C@@H]1CCCN1C(=O)[C@H](CCCCN)NC(=O)[C@@H]1CCCN1)C(=O)N[C@@H](CCCNC(=N)N)C(=O)N[C@@H](Cc1c[nH]cn1)C(=O)N[C@@H](Cc1ccc(O)cc1)C(=O)N[C@@H](CC(C)C)C(=O)N[C@@H](CC(N)=O)C(=O)N[C@@H](Cc1c[nH]c2ccccc12)C(=O)N[C@@H](CC(C)C)C(=O)N[C@H](C(=O)N[C@@H](CCCNC(=N)N)C(=O)N[C@@H](CCC(N)=O)C(=O)N[C@@H](CCCNC(=N)N)C(=O)N[C@@H](Cc1ccccc1)C(N)=O)[C@@H](C)O
B8: Compound A68 (peptide)
peptide: PKPEAPGK([γGlu-γGlu-C20 diacid])DASPEEWNRKYKDLRHYLNWLTRQRF-NH2

Starred links: 1 amine or outer side, 2 acyl side, 3 side chain; linkers in the order of their positions; H or OH if unused. Non-standard residues stand in square brackets, D forms with d. Groups on a side chain read outwards from the residue. No end group written: not given here. *: point of attachment. C20 diacid = O=C(O)CCCCCCCCCCCCCCCCCCC(=O)*; γGlu = O=C(O)[C@H](CCC(=O)[*:2])N[*:1]; NMeY = CN[C@@H](Cc1ccc(O)cc1)C(=O)O

The target in one assay is T1, NPY5R. Description: cell-based or functional assay.
B1: the “NPY5R pEC50” value was 7.3 -Log(EC50, M).

Regarding B2, the “NPY5R pEC50” value is 8.5 -Log(EC50, M).

Consider B3, for which the “NPY5R pEC50” value is 6 -Log(EC50, M).

B4: the “NPY5R pEC50” value was 7.9 -Log(EC50, M).

Consider B5, for which the “NPY5R pEC50” value is 8.3 -Log(EC50, M).

Turning to B6, the “NPY5R pEC50” value was 8.3 -Log(EC50, M).

Regarding B7, the “NPY5R pEC50” value is 8.7 -Log(EC50, M).

With B8, the “NPY5R pEC50” value is 7.9 -Log(EC50, M).

For the next assay, the target named is T2, NPY2R. Description: cell-based or functional assay.
With B1, the “NPY2R pEC50” value is 8.7 -Log(EC50, M).

In the case of B2, the “NPY2R pEC50” value is 10.3 -Log(EC50, M).

Consider B3, for which the “NPY2R pEC50” value was 7.5 -Log(EC50, M).

As for B4, the “NPY2R pEC50” value was 8.6 -Log(EC50, M).

In the case of B5, the “NPY2R pEC50” value is 10 -Log(EC50, M).

Turning to B6, the “NPY2R pEC50” value was 10.3 -Log(EC50, M).

For B7, the “NPY2R pEC50” value was 10.4 -Log(EC50, M).

As to B8, the “NPY2R pEC50” value was 9.7 -Log(EC50, M).
